Here are results for three molecules from paper PMC5669925, “Tumor-expressed immune checkpoint B7x promotes cancer progression and antigen-specific CD8 T cell exhaustion and suppressive innate immune cells” (Oncotarget, 2017).

Assay [1] concerns the target PD-1 on labeled cells (intercellular conjugate assay) (UniProt Q15116). The experiment in a line: intercellular conjugate assay; two cell populations labeled with CFSE or Violet Cell Trace, 2 x 10^5 of each mixed in FACS buffer, 45 minutes at 37 degrees Celsius; co-localization read by FACS. On the technique in general: A flow cytometer gives signals particle by particle.

Assay [2] addresses T1, Recombinant human NRP1 (R&D) (human, UniProt O14786 22-856).
T1 construct: Neuropilin-1 (NRP1), human; Soluble analyte in BLI; no catalogue number or tag is printed; also called Rh-NRP1; source: bought: R&D systems
T1 sequence (looked up): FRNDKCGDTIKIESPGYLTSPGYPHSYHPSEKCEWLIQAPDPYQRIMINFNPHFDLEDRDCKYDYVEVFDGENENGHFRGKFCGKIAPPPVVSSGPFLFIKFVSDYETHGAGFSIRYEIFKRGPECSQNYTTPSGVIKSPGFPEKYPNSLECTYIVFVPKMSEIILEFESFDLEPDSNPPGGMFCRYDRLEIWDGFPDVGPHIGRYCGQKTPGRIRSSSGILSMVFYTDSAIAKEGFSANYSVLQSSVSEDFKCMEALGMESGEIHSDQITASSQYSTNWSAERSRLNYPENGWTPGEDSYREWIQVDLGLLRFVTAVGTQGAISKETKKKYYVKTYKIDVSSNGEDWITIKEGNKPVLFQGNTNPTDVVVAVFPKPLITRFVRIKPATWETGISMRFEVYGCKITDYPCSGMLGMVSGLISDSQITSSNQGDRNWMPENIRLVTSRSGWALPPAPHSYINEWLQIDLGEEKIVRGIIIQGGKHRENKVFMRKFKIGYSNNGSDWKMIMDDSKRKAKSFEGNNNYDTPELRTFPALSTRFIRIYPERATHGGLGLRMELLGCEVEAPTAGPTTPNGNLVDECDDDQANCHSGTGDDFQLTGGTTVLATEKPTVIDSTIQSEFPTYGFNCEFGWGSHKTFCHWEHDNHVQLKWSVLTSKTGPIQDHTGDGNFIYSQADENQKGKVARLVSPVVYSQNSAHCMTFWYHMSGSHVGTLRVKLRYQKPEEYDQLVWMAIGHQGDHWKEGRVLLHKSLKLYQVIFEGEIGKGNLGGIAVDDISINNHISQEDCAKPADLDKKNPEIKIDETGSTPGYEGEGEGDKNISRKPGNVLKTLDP
The experiment in a line: BLI; BLItz system (ForteBio); human IgG fusion protein (25 ug/mL, 2 min) captured on anti-human IgG Fc capture sensors; protein analytes in 1x Kinetic Buffer (ForteBio). Particulars: both partners purified. (BLI is a label-free optical method that tracks binding on a fibre tip over time.)

PD-1 on labeled cells (intercellular conjugate assay), sequence (Q15116 25-288): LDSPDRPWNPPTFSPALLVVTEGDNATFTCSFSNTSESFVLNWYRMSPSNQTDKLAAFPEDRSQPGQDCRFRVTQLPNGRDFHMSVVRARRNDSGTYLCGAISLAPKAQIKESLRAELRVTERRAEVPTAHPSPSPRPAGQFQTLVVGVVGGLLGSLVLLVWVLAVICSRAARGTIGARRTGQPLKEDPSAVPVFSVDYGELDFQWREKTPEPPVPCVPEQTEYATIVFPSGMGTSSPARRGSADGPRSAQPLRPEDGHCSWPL

“PD-L1 on labeled cells (intercellular conjugate assay) (from UniProt Q9NZQ7 19-290) (ligand)” gave a percent co-localization in assay [1] of 18%.

In assay [1], “PD-L2 on labeled cells (intercellular conjugate assay) (from UniProt Q9BQ51 20-273) (ligand)” showed a percent co-localization of 24%.

B1: Human Sema3a-hIgG1 (R&D) (Fc fusion, UniProt Q14563 21-771, looked up)
chain: NYQNGKNNVPRLKLSYKEMLESNNVITFNGLANSSSYHTFLLDEERSRLYVGAKDHIFSFDLVNIKDFQKIVWPVSYTRRDECKWAGKDILKECANFIKVLKAYNQTHLYACGTGAFHPICTYIEIGHHPEDNIFKLENSHFENGRGKSPYDPKLLTASLLIDGELYSGTAADFMGRDFAIFRTLGHHHPIRTEQHDSRWLNDPKFISAHLISESDNPEDDKVYFFFRENAIDGEHSGKATHARIGQICKNDFGGHRSLVNKWTTFLKARLICSVPGPNGIDTHFDELQDVFLMNFKDPKNPVVYGVFTTSSNIFKGSAVCMYSMSDVRRVFLGPYAHRDGPNYQWVPYQGRVPYPRPGTCPSKTFGGFDSTKDLPDDVITFARSHPAMYNPVFPMNNRPIVIKTDVNYQFTQIVVDRVDAEDGQYDVMFIGTDVGTVLKVVSIPKETWYDLEEVLLEEMTVFREPTAISAMELSTKQQQLYIGSTAGVAQLPLHRCDIYGKACAECCLARDPYCAWDGSACSRYFPTAKRRTRRQDIRNGDPLTHCSDLHHDNHHGHSPEERIIYGVENSSTFLECSPKSQRALVYWQFQRRNEERKEEIRVDDHIIRTDQGLLLRSLQQKDSGNYLCHAVEHGFIQTLLKVTLEVIDTEHLEELLHKDDDGDGSKTKEMSNSMTPSQKVWYRDFMQLINHPNLNTMDEFCEQVWKRDRKQRRQRPGHTPGNSNKWKHLQENKKGRNRRTHEFERAPRSV
notes: Semaphorin 3a (Sema3a), human; Commercial Fc fusion; no catalogue number; also called Sema3a-Ig; Semaphorin3a-hIgG1; source: bought: R&D systems
With B1, in assay [2], the binding result is listed as “binds”.
